Read-outs that look alike come from different tables or passages of the source.
Experiments:
[1] = test system: HCV ORFs (Gal4-DB fusions); assay type: binding, HCV genotype 1b, isolate con1; conditions: human protein listed by gene symbol; the value names the HCV protein it interacts with
[2] = biological target: T1, HCV ORFs (Gal4-DB fusions) (Hepatitis C virus genotype 1b, UniProt Q9WMX2); assay type: binding, HCV genotype 1b, isolate con1; conditions: human protein as prey
T1 construct: expressed in transfected cells; host or cells: Saccharomyces cerevisiae MAV203 (IMAP1) / AH109 (IMAP2)

HCV proteins = biological target: T2, HCV proteins (Hepatitis C virus genotype 1b, UniProt Q9WMX2); assay: Validation by Y2H pairwise matrices; assay type: binding; conditions: validation of interaction with HCV protein NS3;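 note: yeast two-hybrid pairwise tests of interactions first found in Y2H screens of HCV bait proteins against human cDNA libraries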
T2 construct: expressed in transfected cells
T2 sequence (Q9WMX2 1027-1657): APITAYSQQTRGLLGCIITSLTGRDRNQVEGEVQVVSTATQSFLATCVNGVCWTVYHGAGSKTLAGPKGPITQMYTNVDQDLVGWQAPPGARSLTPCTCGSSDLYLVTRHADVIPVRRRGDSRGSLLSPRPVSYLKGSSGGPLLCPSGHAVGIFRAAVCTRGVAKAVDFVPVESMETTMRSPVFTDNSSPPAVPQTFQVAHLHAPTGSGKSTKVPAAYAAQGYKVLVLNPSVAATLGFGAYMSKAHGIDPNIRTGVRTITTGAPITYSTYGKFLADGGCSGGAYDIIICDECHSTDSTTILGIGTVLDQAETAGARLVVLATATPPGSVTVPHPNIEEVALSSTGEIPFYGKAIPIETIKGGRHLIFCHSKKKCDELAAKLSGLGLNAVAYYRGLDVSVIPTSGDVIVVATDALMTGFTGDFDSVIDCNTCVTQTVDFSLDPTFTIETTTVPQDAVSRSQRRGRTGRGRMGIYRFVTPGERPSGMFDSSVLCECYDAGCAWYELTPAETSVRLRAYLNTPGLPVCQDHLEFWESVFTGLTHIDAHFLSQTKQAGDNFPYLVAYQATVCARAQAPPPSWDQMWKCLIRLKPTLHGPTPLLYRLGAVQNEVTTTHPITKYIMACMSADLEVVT

[3] = biological target: T3, GST-tagged viral proteins (Hepatitis C virus genotype 1b, UniProt Q9WMX2); assay: Validation by co-affinity purification (CoAP); assay type: binding, HCV genotype 1b, isolate con1; set-up: key: +: IMAP validation; −: not validated; NA: non assayable due to default of protein expression or to cellular protein directly interacting with GST
T3 construct: expressed in transfected cells; host or cells: HEK-293T
Excerpt: C. Validation of Y2H interactions by co-affinity purification assay. Nine co-AP positive assays are shown, representing: NS5A-SORBS2 (1), NS3-CALCOCO2 (2), NS5A-BIN1 (3), NS5A-MOBK1B (4), NS5A-EFEMP1 (5), NS3-PSMB9 and NS5A-PSMB9 (6), NS5A-PPPIRI3L (7), NS3-RASAL2 (8). After pull-down with GST tagged viral baits (+) or with negative control GST alone (−), cellular preys are identified with anti-Flag antibody. Anti-GST antibody identifies either GST alone or GST-tagged viral baits. Expression of cellular preys in cell lysate is controlled by anti-Flag (bottom panel). […]
A random pool of 59 IMAP Y2H interactions was chosen for CoAP assays. Cellular ORFs (interacting domains found in Y2H screens) were cloned by recombinational cloning from a pool of human cDNA library or the MGC cDNA plasmids using KOD polymerase (Toyobo) into pDONR207 (Invitrogen). After validation by sequencing, these ORFs were transferred to pCi-neo-3xFLAG gateway-converted, and HCV ORFs were transferred into pDEST27 (GST fusion in N-term). HEK-293T cells were then co-transfected (JetPei, Polyplus) by each pair of plasmid encoding interacting proteins. Controls are GST alone against 3xFLAG-tagged preys. Two days after transfection, cells were harvested and lysed (0.5% NP-40, 20 mM Tris-HCl (pH 8.0), 180 mM NaCl, 1 mM EDTA, and complete protease inhibitor cocktail). Cell lysates were cleared by centrifugation for 20 min at 13,000 rpm at 4° C. and soluble protein complexes were purified using Glutathione Sepharose 4B beads (GE Healthcare). Beads were then washed extensively four times with lysis buffer and proteins were separated on SDS-PAGE and transferred to nitrocellulose membrane. GST-tagged viral proteins and 3xFLAG-tagged cellular proteins were detected using standard immunoblotting techniques using anti-GST (Covance) and anti-FLAG M2 (Sigma) monoclonal antibodies (21).

[4] = validation of interaction with HCV protein NS3
[5] = interaction with HCV protein NS5A
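Throughout, for IMAP Y2H IMAP1 (number of IST): yeast two-hybrid screens using HCV genotype 1b proteins fused to Gal4-DB as baits against prey cDNA libraries from human spleen and foetal brain, IMAP1 via transformation and IMAP2 via mating.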
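Throughout, for IMAP Y2H IMAP2 (number of IST): yeast two-hybrid screens using HCV genotype 1b proteins fused to Gal4-DB as baits against prey cDNA libraries from human spleen and foetal brain, IMAP1 via transformation and IMAP2 via mating.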
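Throughout, for Interaction with viral protein: yeast two-hybrid screens using HCV genotype 1b proteins fused to Gal4-DB as baits against prey cDNA libraries from human spleen and foetal brain, IMAP1 via transformation and IMAP2 via mating.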

Molecule | Interaction with viral protein [1] | IMAP Y2H IMAP1 (number of IST) ([2]; HCV protein NS3 as bait) | IMAP Y2H IMAP2 (number of IST) ([2]; HCV protein NS3 as bait) | Y2H matrices (HCV proteins) | CoAP [3, 4] | IMAP Y2H IMAP2 (number of IST) ([2]; HCV protein NS5A as bait) | IMAP Y2H IMAP2 (number of IST) ([2]; HCV protein NS5B as bait) | CoAP [3, 5]
FRS3 (protein, UniProt O43559 2-492, looked up) Fibroblast growth factor …: GSCCSCLNRDSVPDNHPTKFKVTNVDDEGVELGSGVMELTQSELVLHLHRREAVRWPYLCLRRYGYDSNLFSFESGRRCQTGQGIFAFKCSRAEEIFNLLQDLMQCNSINVMEEPVIITRNSHPAELDLPRAPQPPNALGYTVSSFSNGCPGEGPRFSAPRRLSTSSLRHPSLGEESTHALIAPDEQSHTYVNTPASEDDHRRGRHCLQPLPEGQAPFLPQARGPDQRDPQVFLQPGQVKFVLGPTPARRHMVKCQGLCPSLHDPPHHNNNNEAPSECPAQPKCTYENVTGGLWRGAGWRLSPEEPGWNGLAHRRAALLHYENLPPLPPVWESQAQQLGGEAGDDGDSRDGLTPSSNGFPDGEEDETPLQKPTSTRAAIRSHGSFPVPLTRRRGSPRVFNFDFRRPGPEPPRQLNYIQVELKGWGGDRPKGPQNPSSPQAPMPTTHPARSSDSYAVIDLKKTVAMSNLQRALPRDDGTARKTRHNSTDLPL | NS3 | 2 | 1 | + | + |  |  | 
MOBK1B (protein, UniProt Q7L9L4 2-216, looked up) MOB kinase activator 1B: SFLFGSRSSKTFKPKKNIPEGSHQYELLKHAEATLGSGNLRMAVMLPEGEDLNEWVAVNTVDFFNQINMLYGTITDFCTEESCPVMSAGPKYEYHWADGTNIKKPIKCSAPKYIDYLMTWVQDQLDDETLFPSKIGVPFPKNFMSVAKTILKRLFRVYAHIYHQHFDPVIQLQEEAHLNTSFKHFIFFVQEFNLIDRRELAPLQELIEKLTSKDR | NS5A |  |  |  |  | 5 | 3 | +
EFEMP1 (protein, UniProt Q12805 18-493, looked up) EGF-containing fibulin-like …: QDTEETITYTQCTDGYEWDPVRQQCKDIDECDIVPDACKGGMKCVNHYGGYLCLPKTAQIIVNNEQPQQETQPAEGTSGATTGVVAASSMATSGVLPGGGFVASAAAVAGPEMQTGRNNFVIRRNPADPQRIPSNPSHRIQCAAGYEQSEHNVCQDIDECTAGTHNCRADQVCINLRGSFACQCPPGYQKRGEQCVDIDECTIPPYCHQRCVNTPGSFYCQCSPGFQLAANNYTCVDINECDASNQCAQQCYNILGSFICQCNQGYELSSDRLNCEDIDECRTSSYLCQYQCVNEPGKFSCMCPQGYQVVRSRTCQDINECETTNECREDEMCWNYHGGFRCYPRNPCQDPYILTPENRCVCPVSNAMCRELPQSIVYKYMSIRSDRSVPSDIFQIQATTIYANTINTFRIKSGNENGEFYLRQTSPVSAMLVLVKSLSGPREHIVDLEMLTVSSIGTFRTSSVLRLTIIVGPFSF | NS3 and NS5A | 10 |  | + |  | 2 |  | +
TMF1 (protein, UniProt P82094 1-1093, looked up) TATA element modulatory factor: MSWFNASQLSSFAKQALSQAQKSIDRVLDIQEEEPSIWAETIPYGEPGISSPVSGGWDTSTWGLKSNTEPQSPPIASPKAITKPVRRTVVDESENFFSAFLSPTDVQTIQKSPVVSKPPAKSQRPEEEVKSSLHESLHIGQSRTPETTESQVKDSSLCVSGETLAAGTSSPKTEGKHEETVNKESDMKVPTVSLKVSESVIDVKTTMESISNTSTQSLTAETKDIALEPKEQKHEDRQSNTPSPPVSTFSSGTSTTSDIEVLDHESVISESSASSRQETTDSKSSLHLMQTSFQLLSASACPEYNRLDDFQKLTESCCSSDAFERIDSFSVQSLDSRSVSEINSDDELSGKGYALVPIIVNSSTPKSKTVESAEGKSEEVNETLVIPTEEAEMEESGRSATPVNCEQPDILVSSTPINEGQTVLDKVAEQCEPAESQPEALSEKEDVCKTVEFLNEKLEKREAQLLSLSKEKALLEEAFDNLKDEMFRVKEESSSISSLKDEFTQRIAEAEKKVQLACKERDAAKKEIKNIKEELATRLNSSETADLLKEKDEQIRGLMEEGEKLSKQQLHNSNIIKKLRAKDKENENMVAKLNKKVKELEEELQHLKQVLDGKEEVEKQHRENIKKLNSMVERQEKDLGRLQVDMDELEEKNRSIQAALDSAYKELTDLHKANAAKDSEAQEAALSREMKAKEELSAALEKAQEEARQQQETLAIQVGDLRLALQRTEQAAARKEDYLRHEIGELQQRLQEAENRNQELSQSVSSTTRPLLRQIENLQATLGSQTSSWEKLEKNLSDRLGESQTLLAAAVERERAATEELLANKIQMSSMESQNSLLRQENSRFQAQLESEKNRLCKLEDENNRYQVELENLKDEYVRTLEETRKEKTLLNSQLEMERMKVEQERKKAIFTQETIKEKERKPFSVSSTPTMSRSSSISGVDMAGLQTSFLSQDESHDHSFGPMPISANGSNLYDAVRMGAGSSIIENLQSQLKLREGEITHLQLEIGNLEKTRSIMAEELVKLTNQNDELEEKVKEIPKLRTQLRDLDQRYNTILQMYGEKAEEAEELRLDLEDVKNMYKTQIDELLRQSLS | NS5A |  |  |  |  | 2 |  | −
EIF4ENIF1 (protein, UniProt Q9NRA8 1-985, looked up) Eukaryotic translation …: MDRRSMGETESGDAFLDLKKPPASKCPHRYTKEELLDIKELPHSKQRPSCLSEKYDSDGVWDPEKWHASLYPASGRSSPVESLKKELDTDRPSLVRRIVDPRERVKEDDLDVVLSPQRRSFGGGCHVTAAVSSRRSGSPLEKDSDGLRLLGGRRIGSGRIISARTFEKDHRLSDKDLRDLRDRDRERDFKDKRFRREFGDSKRVFGERRRNDSYTEEEPEWFSAGPTSQSETIELTGFDDKILEEDHKGRKRTRRRTASVKEGIVECNGGVAEEDEVEVILAQEPAADQEVPRDAVLPEQSPGDFDFNEFFNLDKVPCLASMIEDVLGEGSVSASRFSRWFSNPSRSGSRSSSLGSTPHEELERLAGLEQAILSPGQNSGNYFAPIPLEDHAENKVDILEMLQKAKVDLKPLLSSLSANKEKLKESSHSGVVLSVEEVEAGLKGLKVDQQVKNSTPFMAEHLEETLSAVTNNRQLKKDGDMTAFNKLVSTMKASGTLPSQPKVSRNLESHLMSPAEIPGQPVPKNILQELLGQPVQRPASSNLLSGLMGSLEPTTSLLGQRAPSPPLSQVFQTRAASADYLRPRIPSPIGFTPGPQQLLGDPFQGMRKPMSPITAQMSQLELQQAALEGLALPHDLAVQAANFYQPGFGKPQVDRTRDGFRNRQQRVTKSPAPVHRGNSSSPAPAASITSMLSPSFTPTSVIRKMYESKEKSKEEPASGKAALGDSKEDTQKASEENLLSSSSVPSADRDSSPTTNSKLSALQRSSCSTPLSQANRYTKEQDYRPKATGRKTPTLASPVPTTPFLRPVHQVPLVPHVPMVRPAHQLHPGLVQRMLAQGVHPQHLPSLLQTGVLPPGMDLSHLQGISGPILGQPFYPLPAASHPLLNPRPGTPLHLAMVQQQLQRSVLHPPGSGSHAAAVSVQTTPQNVPSRSGLPHMHSQLEHRPSQRSSSPVGLAKWFGSDVLQQPLPSMPAKVISVDELEYRQ | NS3 | 2 | 3 | + | + |  |  | 
SORBS2 (protein, UniProt O94875 1-1100, looked up) Sorbin and SH3 …: MSYYQRPFSPSAYSLPASLNSSIVMQHGTSLDSTDTYPQHAQSLDGTTSSSIPLYRSSEEEKRVTVIKAPHYPGIGPVDESGIPTAIRTTVDRPKDWYKTMFKQIHMVHKPDDDTDMYNTPYTYNAGLYNPPYSAQSHPAAKTQTYRPLSKSHSDNSPNAFKDASSPVPPPHVPPPVPPLRPRDRSSTEKHDWDPPDRKVDTRKFRSEPRSIFEYEPGKSSILQHERPASLYQSSIDRSLERPMSSASMASDFRKRRKSEPAVGPPRGLGDQSASRTSPGRVDLPGSSTTLTKSFTSSSPSSPSRAKGGDDSKICPSLCSYSGLNGNPSSELDYCSTYRQHLDVPRDSPRAISFKNGWQMARQNAEIWSSTEETVSPKIKSRSCDDLLNDDCDSFPDPKVKSESMGSLLCEEDSKESCPMAWGSPYVPEVRSNGRSRIRHRSARNAPGFLKMYKKMHRINRKDLMNSEVICSVKSRILQYESEQQHKDLLRAWSQCSTEEVPRDMVPTRISEFEKLIQKSKSMPNLGDDMLSPVTLEPPQNGLCPKRRFSIEYLLEEENQSGPPARGRRGCQSNALVPIHIEVTSDEQPRAHVEFSDSDQDGVVSDHSDYIHLEGSSFCSESDFDHFSFTSSESFYGSSHHHHHHHHHHHRHLISSCKGRCPASYTRFTTMLKHERARHENTEEPRRQEMDPGLSKLAFLVSPVPFRRKKNSAPKKQTEKAKCKASVFEALDSALKDICDQIKAEKKRGSLPDNSILHRLISELLPDVPERNSSLRALRRSPLHQPLHPLPPDGAIHCPPYQNDCGRMPRSASFQDVDTANSSCHHQDRGGALQDRESPRSYSSTLTDMGRSAPRERRGTPEKEKLPAKAVYDFKAQTSKELSFKKGDTVYILRKIDQNWYEGEHHGRVGIFPISYVEKLTPPEKAQPARPPPPAQPGEIGEAIAKYNFNADTNVELSLRKGDRVILLKRVDQNWYEGKIPGTNRQGIFPVSYVEVVKKNTKGAEDYPDPPIPHSYSSDRIHSLSSNKPQRPVFTHENIQGGGEPFQALYNYTPRNEDELELRESDVIDVMEKCDDGWFVGTSRRTKFFGTFPGNYVKRL | NS5A |  |  |  |  | 8 |  | +
